We go through three molecules from publication PMC6628001, “The Biochemical Activities of the Saccharomyces cerevisiae Pif1 Helicase Are Regulated by Its N-Terminal Domain”.

Data set [1] concerns the target T1, Pif1 (full-length recombinant) (Saccharomyces cerevisiae, UniProt P07271 1-859).
T1 sequence: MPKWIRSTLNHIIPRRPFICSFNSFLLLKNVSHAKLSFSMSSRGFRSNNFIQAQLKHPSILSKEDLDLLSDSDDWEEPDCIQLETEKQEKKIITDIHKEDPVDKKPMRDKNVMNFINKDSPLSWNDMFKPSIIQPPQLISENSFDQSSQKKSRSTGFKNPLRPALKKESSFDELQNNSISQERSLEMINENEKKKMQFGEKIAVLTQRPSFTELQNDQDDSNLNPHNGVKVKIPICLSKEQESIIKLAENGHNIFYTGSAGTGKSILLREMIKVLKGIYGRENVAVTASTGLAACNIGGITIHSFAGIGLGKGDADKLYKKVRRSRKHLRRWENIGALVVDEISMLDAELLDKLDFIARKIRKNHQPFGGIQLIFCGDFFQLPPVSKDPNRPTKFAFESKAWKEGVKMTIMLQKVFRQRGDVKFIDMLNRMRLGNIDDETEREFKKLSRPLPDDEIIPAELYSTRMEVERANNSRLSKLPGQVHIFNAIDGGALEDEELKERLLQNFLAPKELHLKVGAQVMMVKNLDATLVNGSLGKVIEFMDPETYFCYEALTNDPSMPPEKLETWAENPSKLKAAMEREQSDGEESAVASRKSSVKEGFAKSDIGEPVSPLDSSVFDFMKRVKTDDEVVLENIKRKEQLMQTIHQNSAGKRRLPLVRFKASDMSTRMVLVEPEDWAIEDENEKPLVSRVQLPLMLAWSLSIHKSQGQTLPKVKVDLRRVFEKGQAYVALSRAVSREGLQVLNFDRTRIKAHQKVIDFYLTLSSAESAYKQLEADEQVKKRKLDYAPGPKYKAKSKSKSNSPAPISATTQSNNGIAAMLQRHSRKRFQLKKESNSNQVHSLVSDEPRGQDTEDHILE
The data set can be described thus: EMSA; 7.5 mM Mg2+; 25 mM HEPES pH 8.0, 5% glycerol, 50 mM NaOAc, 150 μM NaCl (so in the source), 7.5 mM MgCl2, 0.01% Tween-20; 0.2 nM DNA; 30 °C 30 min; 4 mM ATP when present (not stated per row). The following applies: protein: recombinant, tags: SUMO tag in expression construct (pSUMO-Pif1). In general terms: In EMSA bound probe runs differently from free probe, usually more slowly.

Another data set addresses T2, Pif1ΔN (Saccharomyces cerevisiae, UniProt P07271 234-859, del1-233).
T2 sequence: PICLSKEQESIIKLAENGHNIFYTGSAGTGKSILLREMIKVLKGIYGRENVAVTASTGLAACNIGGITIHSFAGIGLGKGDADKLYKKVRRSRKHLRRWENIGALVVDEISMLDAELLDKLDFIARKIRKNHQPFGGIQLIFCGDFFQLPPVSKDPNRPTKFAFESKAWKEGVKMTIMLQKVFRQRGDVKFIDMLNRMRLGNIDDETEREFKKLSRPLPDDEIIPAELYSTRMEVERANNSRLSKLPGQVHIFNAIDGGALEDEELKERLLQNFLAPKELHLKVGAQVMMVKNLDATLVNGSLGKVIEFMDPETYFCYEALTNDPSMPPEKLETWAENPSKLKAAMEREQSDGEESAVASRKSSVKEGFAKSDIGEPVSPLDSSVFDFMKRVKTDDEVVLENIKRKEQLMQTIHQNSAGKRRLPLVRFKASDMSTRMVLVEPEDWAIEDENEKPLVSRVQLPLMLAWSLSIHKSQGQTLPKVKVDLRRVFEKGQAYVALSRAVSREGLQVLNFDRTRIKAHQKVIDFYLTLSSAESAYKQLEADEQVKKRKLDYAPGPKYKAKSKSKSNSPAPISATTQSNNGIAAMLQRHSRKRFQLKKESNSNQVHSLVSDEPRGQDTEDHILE
Described as above. The following applies: protein: recombinant, tags: SUMO tag in expression construct (pSUMO-Pif1ΔN).

Setting [2] is: label: 32P on helicase loading strand (5' end, T4 PNK; MB1572 implied), fork 1:26-45 2:1-20, unpaired 5' DNA arm 25 nt and 3' RNA arm 25 nt.

B1: RNA-DNA hybrid fork (MB1572/MB1571) (DNA:RNA)
DNA: GAACGCTATGTGAGTGACACTGGGTCACCACACCCACACCACACC
RNA: GGUGUGGUGUGGGUGUGGUGUGGGUCACAGUGAGUGUAUCGCAAG
modifications: MB1571 is all RNA; MB1572 is DNA
For B1, the Kd in data set [1] (setting [2]) was 0.67 ± 0.085 nM; with Pif1ΔN (setting [2]), 0.135 ± 0.013 nM.

For the molecule CGCCATGCTGATCCGTGTGGTGTGTGTGGG (ssDNA) [Tel30], the Kd with Pif1ΔN (label: 32P (5' end, T4 PNK)) came to 0.41 ± 0.031 nM.

Turning to TGTGGTGTGTGTGGG (ssDNA) [Tel15], the Kd in data set [1] (label: 32P (5' end, T4 PNK)) is 112 ± 12.7 nM; with Pif1ΔN (label: 32P (5' end, T4 PNK)), 0.39 ± 0.058 nM.

One may read the Kd as a measure of binding affinity in units of concentration.
